From publication PMC2928128

Target: GST-CDH23Δexon68ΔITEL (residues 847-1075)
Assay: SPR

Row | Kd [nM] | Binder
1 | 58 | harmonin-a Nter-PDZ1 fragment (residues 1-203) (domain or fragment) MDRKVAREFRHKVDFLIENDAEKDYLYDVLRMYHQTMDVAVLVGDLKLVINEPNRLPLFDAIRPLIPLKHQVEYDQLTPRRSRKLKEVRLDRLHPEGLGLSVRGGLEFGCGLFISHLIKGGQADSVGLQVGDEIVRINGYSISSCTHEEVINLIRTKKTVSIKVRHIGLIPVKSSPEESLKWQYVDQFVSESGGVRGGLGSPG
2 | > 5000 | harmonin-a Nter domain (residues 1-79) (domain or fragment) MDRKVAREFRHKVDFLIENDAEKDYLYDVLRMYHQTMDVAVLVGDLKLVINEPNRLPLFDAIRPLIPLKHQVEYDQLTP
